Measurements published in paper doi:10.1101/2020.12.09.418111.

Target: T1, Kaiso without BTB/POZ domain, GST fusion (UniProt Q86T24 113-672)
T1 sequence: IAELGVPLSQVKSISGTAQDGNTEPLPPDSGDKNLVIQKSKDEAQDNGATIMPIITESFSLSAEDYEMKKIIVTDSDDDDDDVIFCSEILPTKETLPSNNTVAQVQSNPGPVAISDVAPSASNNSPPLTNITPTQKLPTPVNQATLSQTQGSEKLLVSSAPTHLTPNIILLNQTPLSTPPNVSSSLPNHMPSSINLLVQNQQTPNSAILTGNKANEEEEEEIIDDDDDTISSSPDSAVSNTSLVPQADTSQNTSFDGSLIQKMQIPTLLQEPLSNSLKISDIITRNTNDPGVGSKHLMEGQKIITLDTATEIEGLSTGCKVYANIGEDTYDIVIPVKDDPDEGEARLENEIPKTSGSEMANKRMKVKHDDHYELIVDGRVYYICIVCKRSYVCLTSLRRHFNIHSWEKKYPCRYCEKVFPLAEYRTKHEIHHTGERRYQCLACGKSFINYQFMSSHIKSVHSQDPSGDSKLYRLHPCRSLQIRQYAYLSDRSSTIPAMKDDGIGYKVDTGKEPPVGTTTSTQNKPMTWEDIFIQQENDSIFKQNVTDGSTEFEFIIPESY
Assay: EMSA

B1: met-SM-FAM / met-SM methylated probe (dsDNA)
DNA 1: GCAGCCGCGCCCAACGCTGGGAGATC
DNA 2: TCCCCAGCGTTGGGCGCGGCTGCGATC
modifications: 5-methylcytosine (printed meC) at strand 1 positions 6, 8, 15 and strand 2 positions 8, 15, 17
- binding result: binds
